In data set [1] the target is Heat treated Hel308 Mbu-E284Faz E284Faz (Methanococcoides burtonii) (UniProt Q12WZ6). The following applies: four nitroindoles between SEQ 155 and SEQ 154; nanopore; 500 nM, 960 mM KCl, 10 mM MgCl2, 1 mM ATP.
The target of data set [2] is Hel308 Mbu-E284Faz E284Faz (Methanococcoides burtonii) (UniProt Q12WZ6). To be noted: four nitroindoles between SEQ 155 and SEQ 154; nanopore; 100 nM, 960 mM KCl, 10 mM MgCl2, 1 mM ATP.
For data set [3], the target named is T1, Hel308 Mbu(E284C/S615C)-bismaleimidePEG11 (Methanococcoides burtonii, UniProt Q12WZ6 SEQ:1-760, E284C/S615C).
T1 sequence: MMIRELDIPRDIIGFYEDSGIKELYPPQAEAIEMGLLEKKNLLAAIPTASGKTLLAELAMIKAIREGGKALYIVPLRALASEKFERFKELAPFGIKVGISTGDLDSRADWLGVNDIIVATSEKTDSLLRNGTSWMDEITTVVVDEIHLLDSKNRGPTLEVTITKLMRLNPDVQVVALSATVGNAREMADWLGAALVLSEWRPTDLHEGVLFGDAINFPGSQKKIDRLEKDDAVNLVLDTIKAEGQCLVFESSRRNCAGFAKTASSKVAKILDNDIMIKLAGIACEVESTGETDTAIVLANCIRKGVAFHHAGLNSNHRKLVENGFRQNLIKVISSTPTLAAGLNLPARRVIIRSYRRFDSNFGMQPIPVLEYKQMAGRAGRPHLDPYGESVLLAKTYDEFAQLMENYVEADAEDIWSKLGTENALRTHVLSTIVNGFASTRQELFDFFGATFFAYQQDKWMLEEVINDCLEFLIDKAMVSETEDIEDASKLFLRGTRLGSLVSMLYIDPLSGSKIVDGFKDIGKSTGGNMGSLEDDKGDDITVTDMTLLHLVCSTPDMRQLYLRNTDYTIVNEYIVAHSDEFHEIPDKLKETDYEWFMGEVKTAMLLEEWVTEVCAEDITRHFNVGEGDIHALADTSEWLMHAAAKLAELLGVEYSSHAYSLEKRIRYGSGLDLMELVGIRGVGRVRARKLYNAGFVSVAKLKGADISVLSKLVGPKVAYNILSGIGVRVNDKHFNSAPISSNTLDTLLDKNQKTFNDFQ
The experiment in a line: fluorescence unwinding; increased processivity; 400 mM NaCl, 1 mM ATP, 10 mM MgCl2. To be noted: tags: C284 and C615 crosslinked by bismaleimidePEG11 (closed); 3' ssDNA overhang, 80 and 33 bp duplex sections. The source says: (§1) The fluorescent probe is designed in such a way that its 5′ and 3′ ends are self-complementary and thus form a kinetically-stable hairpin once displaced, preventing the probe from re-annealing to the template strand (FIG. 3 section D). Upon formation of the hairpin product, the FAM is brought into the vicinity of the BHQ-1 and its fluorescence is quenched. A processive enzyme, capable of displacing the 80 mer “blocker” (SEQ ID NO: 111) and fluorescent (SEQ ID NO: 112, labelled with a carboxyfluorescein (FAM) at its 5′ end a black-hole quencher (BHQ-1) at its 3′ end) strands will therefore lead to a decrease in fluorescence over time. However, if the enzyme has a processivity of less than 80 nt it would be unable to displace the fluorescent strand (SEQ ID NO: 112, labelled with a carboxyfluorescein (FAM) at its 5′ end a black-hole quencher (BHQ-1) at its 3′ end) and, therefore, the “blocker” strand (SEQ ID NO: 111) would reanneal to the major bottom strand (FIG. 3 section E, SEQ ID NO: 110).

The target of data set [4] is T2, Hel308 Mbu(E284C/S615C)-bismaleimidePEG3 (Methanococcoides burtonii, UniProt Q12WZ6 SEQ:1-760, E284C/S615C).
T2 sequence: T1 sequence
The data set is described as above. The following applies: tags: C284 and C615 crosslinked by bismaleimidePEG3 (closed); 3' ssDNA overhang, 80 and 33 bp duplex sections.
Text: as §1

In the case of 3.6 kb DNA, the activity (% movements reaching polyT) in data set [1] worked out at 71; in data set [2], 28.

B1: 80 bp blocker processivity substrate (dsDNA)
DNA 1: TCGCTGCTCCACAGGTCTCAGCTTGAGCAGCGAAAATAAGAACATTATGATCAGTAGGAGCACTACGACCTTTGTTCTGGTGCTCGTCCGGGCGCCCAAAGTGGAGCGAGTGCCCCC
DNA 2: GCACTCGCTCCACTTTGGGCGCCCGGACGAGCACCAGAACAAAGGTCGTAGTGCTCCTACTGATCATAATGTTCTTATTT
DNA 3: TCGCTGCTCAAGCTGAGACCTGTGGAGCAGCGA
Consider B1, for which the binding result in data set [3] and in data set [4] was “binds” each time.

The values are drawn from US20150191709, “MODIFIED HELICASES” (OXFORD NANOPORE TECHNOLOGIES LIMITED, published 2015).
